B1: SEQ ID NO 111 (Fab, V domains shown)
VH: EVQLTESGGGLVQPGGSLRLSCRASGFIFSNHYMNWVRQAPGKGLEWIGEIRSKSINSATHYAESVKGRFIISRDDNGNSLYLEMNSLKTEDTAEYYCARNYYGSTPDYWGQGTLVTVS
VL: EIVLTQSPDFQSVTPKEKVTITCRASQFVGSSIHWYQQKPDQSPKLLIKYASESMSGVPSRFSGSGSGTDFTFTISSLEAEDAATYYCQQSHSWPFTFGPGTKVDIK
notes: Fab, E. coli lysate
B2: SEQ ID NO 145 (Fab, V domains shown)
VH: EVQLTESGGGLVQPGGSLRLSCRASQSTFSNHYMNWVRQAPGKGLEWIGEIRSKSSNGATSYAESVKGRFIISRDDNGNDLYLEMNSLKTEDTAEYYCAQNYYGSTYDYWGQGTLVTVS
VL: EIVLTQSPDFQSVTPKEKVTITCRASQFVGSSIHWYQQKPDQSPKLLIKYASESMSGVPSRFSGSGSGTDFTFTISSLEAEDAATYYCQQSHSWPFTFGPGTKVDIK
notes: Fab, E. coli lysate
B3: SEQ ID NO 135 (Fab, V domains shown)
VH: EVQLVESGGGLVQPGGSLRLSCAASQSIFSNHWMNWVRQAPGKGLEWIGEIRSKSSNSATSYAESVKGRFIISRDGNKTDLYLEMNSLKTEDTAEYYCAQNYYGSTYDYWGQGTLVTVS
VL: EIVLTQSPDFQSVTPKEKVTITCRASQFVGSSIHWYQQKPDQSPKLLIKYASESMSGVPSRFSGSGSGTDFTFTISSLEAEDAATYYCQQSHSWPFTFGPGTKVDIK
notes: Fab, E. coli lysate
B4: SEQ ID NO 134 (Fab, V domains shown)
VH: EVQLTESGGGLVQPGGSLRLSCAASGSIFSNHWMNWVRQAPGKGLEWIGEIRSKSINGATHYAESVKGRFIISRDGNGTSLYLEMNSLKTEDTAEYYCARNYYGSTPDYWGQGTLVTVS
VL: EIVLTQSPDFQSVTPKEKVTITCRASQFVGSSIHWYQQKPDQSPKLLIKYASESMSGVPSRFSGSGSGTDFTFTISSLEAEDAATYYCQQSHSWPFTFGPGTKVDIK
notes: Fab, E. coli lysate
B5: SEQ ID NO 137 (Fab, V domains shown)
VH: EVQLVESGGGLVQPGGSLRLSCAASGSTFSNHYMNWVRQAPGKGLEWIGEIRSKSSYSATSYAESVKGRFIISRDGNGTDLTLEMNSLKTEDTAEYYCAQNYYGSTYDYWGQGTLVTVS
VL: EIVLTQSPDFQSVTPKEKVTITCRASQFVGSSIHWYQQKPDQSPKLLIKYASESMSGVPSRFSGSGSGTDFTFTISSLEAEDAATYYCQQSHSWPFTFGPGTKVDIK
notes: Fab, E. coli lysate
B6: SEQ ID NO 118 (Fab, V domains shown)
VH: EVQLVESGGGLVQPGGSLRLSCAASQFTFSNHWMNWVRQAPGKGLEWIGEIRSKSINSATSYAESVKGRFIISRDDNKNSLYLEMNSLKTEDTAEYYCARNYYGSTPDYWGQGTLVTVS
VL: EIVLTQSPDFQSVTPKEKVTITCRASQFVGSSIHWYQQKPDQSPKLLIKYASESMSGVPSRFSGSGSGTDFTFTISSLEAEDAATYYCQQSHSWPFTFGPGTKVDIK
notes: Fab, E. coli lysate
B7: SEQ ID NO 138 (Fab, V domains shown)
VH: EVQLTESGGGLVQPGGSLRLSCRASGFIFSNHYMNWVRQAPGKGLEWIGEIRSKSSNSATSYAESVKGRFIISRDGNKNDLYLEMNSLKTEDTAEYYCARNYYGSTPDYWGQGTLVTVS
VL: EIVLTQSPDFQSVTPKEKVTITCRASQFVGSSIHWYQQKPDQSPKLLIKYASESMSGVPSRFSGSGSGTDFTFTISSLEAEDAATYYCQQSHSWPFTFGPGTKVDIK
notes: Fab, E. coli lysate
B8: SEQ ID NO 130 (Fab, V domains shown)
VH: EVQLVESGGGLVQPGGSLRLSCRASGFIFSNHYMNWVRQAPGKGLEWIGEIRSKSIYSATHYAESVKGRFIISRDDNGNSLYLEMNSLKTEDTAEYYCAQNYYGSTYDYWGQGTLVTVS
VL: EIVLTQSPDFQSVTPKEKVTITCRASQFVGSSIHWYQQKPDQSPKLLIKYASESMSGVPSRFSGSGSGTDFTFTISSLEAEDAATYYCQQSHSWPFTFGPGTKVDIK
notes: Fab, E. coli lysate
B9: SEQ ID NO 136 (Fab, V domains shown)
VH: EVQLTESGGGLVQPGGSLRLSCAASQSIFSNHWMNWVRQAPGKGLEWIGEIRSKSIYSATHYAESVKGRFIISRDDNGTSLYLEMNSLKTEDTAEYYCAQNYYGSTPDYWGQGTLVTVS
VL: EIVLTQSPDFQSVTPKEKVTITCRASQFVGSSIHWYQQKPDQSPKLLIKYASESMSGVPSRFSGSGSGTDFTFTISSLEAEDAATYYCQQSHSWPFTFGPGTKVDIK
notes: Fab, E. coli lysate
B10: SEQ ID NO 126 (Fab, V domains shown)
VH: EVQLVESGGGLVQPGGSLRLSCRASGSTFSNHYMNWVRQAPGKGLEWIGEIRSKSIYSATHYAESVKGRFIISRDGNKNSLYLEMNSLKTEDTAEYYCAQNYYGSTYDYWGQGTLVTVS
VL: EIVLTQSPDFQSVTPKEKVTITCRASQFVGSSIHWYQQKPDQSPKLLIKYASESMSGVPSRFSGSGSGTDFTFTISSLEAEDAATYYCQQSHSWPFTFGPGTKVDIK
notes: Fab, E. coli lysate
B11: SEQ ID NO 112 (Fab, V domains shown)
VH: EVQLVESGGGLVQPGGSLRLSCRASGFTFSNHWMNWVRQAPGKGLEWIGEIRSKSIYSATHYAESVKGRFIISRDDNKTDLYLEMNSLKTEDTAEYYCARNYYGSTPDYWGQGTLVTVS
VL: EIVLTQSPDFQSVTPKEKVTITCRASQFVGSSIHWYQQKPDQSPKLLIKYASESMSGVPSRFSGSGSGTDFTFTISSLEAEDAATYYCQQSHSWPFTFGPGTKVDIK
notes: Fab, E. coli lysate
B12: SEQ ID NO 144 (Fab, V domains shown)
VH: EVQLVESGGGLVQPGGSLRLSCRASGSIFSNHYMNWVRQAPGKGLEWIGEIRSKSSNSATSYAESVKGRFIISRDGNKNDLYLEMNSLKTEDTAEYYCAQNYYGSTYDYWGQGTLVTVS
VL: EIVLTQSPDFQSVTPKEKVTITCRASQFVGSSIHWYQQKPDQSPKLLIKYASESMSGVPSRFSGSGSGTDFTFTISSLEAEDAATYYCQQSHSWPFTFGPGTKVDIK
notes: Fab, E. coli lysate
B13: SEQ ID NO 115 (Fab, V domains shown)
VH: EVQLVESGGGLVQPGGSLRLSCRASGSIFSNHYMNWVRQAPGKGLEWIGEIRSKSINSATHYAESVKGRFIISRDGNGTSLYLEMNSLKTEDTAEYYCAQNYYGSTYDYWGQGTLVTVS
VL: EIVLTQSPDFQSVTPKEKVTITCRASQFVGSSIHWYQQKPDQSPKLLIKYASESMSGVPSRFSGSGSGTDFTFTISSLEAEDAATYYCQQSHSWPFTFGPGTKVDIK
notes: Fab, E. coli lysate
B14: SEQ ID NO 141 (Fab, V domains shown)
VH: EVQLVESGGGLVQPGGSLRLSCAASGSTFSNHWMNWVRQAPGKGLEWIGEIRSKSIYGATSYAESVKGRFIISRDGNKNSLYLEMNSLKTEDTAEYYCARNYYGSTYDYWGQGTLVTVS
VL: EIVLTQSPDFQSVTPKEKVTITCRASQFVGSSIHWYQQKPDQSPKLLIKYASESMSGVPSRFSGSGSGTDFTFTISSLEAEDAATYYCQQSHSWPFTFGPGTKVDIK
notes: Fab, E. coli lysate
B15: SEQ ID NO 131 (Fab, V domains shown)
VH: EVQLTESGGGLVQPGGSLRLSCAASQFTFSNHYMNWVRQAPGKGLEWIGEIRSKSSNSATSYAESVKGRFIISRDGNGTSLTLEMNSLKTEDTAEYYCAQNYYGSTYDYWGQGTLVTVS
VL: EIVLTQSPDFQSVTPKEKVTITCRASQFVGSSIHWYQQKPDQSPKLLIKYASESMSGVPSRFSGSGSGTDFTFTISSLEAEDAATYYCQQSHSWPFTFGPGTKVDIK
notes: Fab, E. coli lysate
B16: SEQ ID NO 124 (Fab, V domains shown)
VH: EVQLVESGGGLVQPGGSLRLSCAASQSTFSNHYMNWVRQAPGKGLEWIGEIRSKSSNSATHYAESVKGRFIISRDGNKNDLYLEMNSLKTEDTAEYYCARNYYGSTPDYWGQGTLVTVS
VL: EIVLTQSPDFQSVTPKEKVTITCRASQFVGSSIHWYQQKPDQSPKLLIKYASESMSGVPSRFSGSGSGTDFTFTISSLEAEDAATYYCQQSHSWPFTFGPGTKVDIK
notes: Fab, E. coli lysate
B17: SEQ ID NO 140 (Fab, V domains shown)
VH: EVQLTESGGGLVQPGGSLRLSCAASGSTFSNHYMNWVRQAPGKGLEWIGEIRSKSSNSATHYAESVKGRFIISRDDNGTSLYLEMNSLKTEDTAEYYCARNYYGSTYDYWGQGTLVTVS
VL: EIVLTQSPDFQSVTPKEKVTITCRASQFVGSSIHWYQQKPDQSPKLLIKYASESMSGVPSRFSGSGSGTDFTFTISSLEAEDAATYYCQQSHSWPFTFGPGTKVDIK
notes: Fab, E. coli lysate
B18: SEQ ID NO 132 (Fab, V domains shown)
VH: EVQLVESGGGLVQPGGSLRLSCAASQSIFSNHYMNWVRQAPGKGLEWIGEIRSKSIYGATSYAESVKGRFIISRDDNKNSLTLEMNSLKTEDTAEYYCARNYYGSTPDYWGQGTLVTVS
VL: EIVLTQSPDFQSVTPKEKVTITCRASQFVGSSIHWYQQKPDQSPKLLIKYASESMSGVPSRFSGSGSGTDFTFTISSLEAEDAATYYCQQSHSWPFTFGPGTKVDIK
notes: Fab, E. coli lysate
B19: SEQ ID NO 117 (Fab, V domains shown)
VH: EVQLTESGGGLVQPGGSLRLSCAASQFTFSNHWMNWVRQAPGKGLEWIGEIRSKSSNSATHYAESVKGRFIISRDGNKTSLTLEMNSLKTEDTAEYYCARNYYGSTPDYWGQGTLVTVS
VL: EIVLTQSPDFQSVTPKEKVTITCRASQFVGSSIHWYQQKPDQSPKLLIKYASESMSGVPSRFSGSGSGTDFTFTISSLEAEDAATYYCQQSHSWPFTFGPGTKVDIK
notes: Fab, E. coli lysate
B20: SEQ ID NO 123 (Fab, V domains shown)
VH: EVQLTESGGGLVQPGGSLRLSCRASQFTFSNHYMNWVRQAPGKGLEWIGEIRSKSSYGATSYAESVKGRFIISRDDNGNDLYLEMNSLKTEDTAEYYCARNYYGSTYDYWGQGTLVTVS
VL: EIVLTQSPDFQSVTPKEKVTITCRASQFVGSSIHWYQQKPDQSPKLLIKYASESMSGVPSRFSGSGSGTDFTFTISSLEAEDAATYYCQQSHSWPFTFGPGTKVDIK
notes: Fab, E. coli lysate
B21: SEQ ID NO 127 (Fab, V domains shown)
VH: EVQLTESGGGLVQPGGSLRLSCAASQFIFSNHWMNWVRQAPGKGLEWIGEIRSKSSYGATSYAESVKGRFIISRDDNGNSLTLEMNSLKTEDTAEYYCARNYYGSTPDYWGQGTLVTVS
VL: EIVLTQSPDFQSVTPKEKVTITCRASQFVGSSIHWYQQKPDQSPKLLIKYASESMSGVPSRFSGSGSGTDFTFTISSLEAEDAATYYCQQSHSWPFTFGPGTKVDIK
notes: Fab, E. coli lysate

Target: T1, human tumor necrosis factor-α (rHuTNF-alpha, Biosource) (human, UniProt P01375 77-233)
T1 construct: Bought recombinant protein coated on ELISA plates; The TNFα of the Biacore assay is not described further; also called TNFα; human TNFα
T1 sequence (P01375 77-233 limits assumed): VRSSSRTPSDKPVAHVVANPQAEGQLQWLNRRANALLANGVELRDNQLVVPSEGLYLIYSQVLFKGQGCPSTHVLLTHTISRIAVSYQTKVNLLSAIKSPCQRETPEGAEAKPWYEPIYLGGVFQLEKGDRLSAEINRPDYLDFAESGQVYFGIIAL
Assay: solid-phase ELISA, Fab lysate on coated rHuTNF-alpha
Summary of the method: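 E. coli lysates expressing His-tagged Fab (pTrcHis2A) were incubated 2 h at RT on wells coated with 1 μg/ml rHuTNF-α and blocked with BSA. Bound Fab was detected with biotinylated anti-human kappa plus penta-His conjugates, then streptavidin-POD and TMB. Absorbance was read at 450 nm.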

| Binder | binding result |
| --- | --- |
| B1 | binds |
| B2 | binds |
| B3 | binds |
| B4 | binds |
| B5 | binds |
| B6 | binds |
| B7 | binds |
| B8 | binds |
| B9 | binds |
| B10 | binds |
| B11 | binds |
| B12 | binds |
| B13 | binds |
| B14 | binds |
| B15 | binds |
| B16 | binds |
| B17 | binds |
| B18 | binds |
| B19 | binds |
| B20 | binds |
| B21 | binds |

Source: patent US20070092518A1 (published 2007)
